Data: article PMC7523994, “Relationships between puroindoline A-prolamin interactions and wheat grain hardness” (PLoS ONE, 2020)

How the values were obtained:
puroindoline A [1] = molecular target: T1, puroindoline A (Triticum aestivum, UniProt P33432 29-148); test: SPR; α-gliadin, γ-gliadin or (PQQPY)8 covalently bound to a CM5 chip (EDC/NHS, 10 mM acetate pH 4.7); PINA flowed over at 10 μL/min, 25°C, 10 mM Hepes pH 7.4, 150 mM NaCl, 3.4 mM EDTA, 0.005% P20; global kinetic fit, 1:1 Langmuir model; conditions: both partners purified
T1 construct: puroindoline A (PINA) of Triticum aestivum cv; Recital, purified from grain; about 13 kDa, five disulfide bonds, tryptophan-rich domain; The Pina allele of cv; The preparation probably holds several C-terminally processed forms; also called PINA
T1 sequence (looked up): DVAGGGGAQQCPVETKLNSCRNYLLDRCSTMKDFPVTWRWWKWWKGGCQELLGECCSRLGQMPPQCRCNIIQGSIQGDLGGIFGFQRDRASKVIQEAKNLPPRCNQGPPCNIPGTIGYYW

puroindoline A [2] = molecular target: T1, puroindoline A; test: SPR; (PQQPY)8 covalently bound to a CM5 chip; PINA 2 to 20 μM flowed over, 25°C, Hepes buffer pH 7.4; steady-state fit, 1:1 Langmuir model; conditions: both partners purified

B1: recombinant polypeptide (PQQPY)8 (peptide)
chain: PQQPYPQQPYPQQPYPQQPYPQQPYPQQPYPQQPYPQQPY
notes: written out from '(PQQPY)8'; measured mass 4924.5 Da, theoretical 4924.3 Da; The fusion is printed as thioredoxin-DP-(PQQPY)8 and was cut in formic acid; The printed theoretical mass of 4924.3 Da fits 40 residues (eight repeats, monoisotopic) without a further proline; also called (Pro-Gln-Gln-Pro-Tyr)8; spr8; source: BLR strain, pETb32 vector, thioredoxin fusion; not shown: thioredoxin, …
Work on B1 yielded a Kd (puroindoline A [1]) of 0.29 ± 0.005 µM, a koff (puroindoline A [1]) of 0.0015 ± 0.1 s⁻¹ and a kon (puroindoline A [1]) of 5000 ± 0.03 M⁻¹ s⁻¹. It also gave a Kd (puroindoline A [2]) of 7.22 ± 2.8 µM.
